Laboratory results reported in paper PMC10916880 (Molecular Biology of the Cell, 2024).

B1: full-length mouse Kif21a fused to GFP (natural protein, UniProt Q9QXL2 1-1672, looked up)
chain: MLGAADESSVRVAVRIRPQLAKEKIEGCHICTSVTPGEPQVFLGKDKAFTFDYVFDIDSQQEQIYTQCIEKLIEGCFEGYNATVFAYGQTGAGKTYTMGTGFDVNIMEEEQGIISRAVRHLFKSIDEKKTSAIKNGLPPPEFKVNAQFLELYNEEVLDLFDTTRDIDAKNKKSNIRIHEDSTGGIYTVGVTTRTVNTEPEMMQCLKLGALSRTTASTQMNVQSSRSHAIFTIHVCQTRVCPQTDAENATDNKLISESSPMNEFETLTAKFHFVDLAGSERLKRTGATGERAKEGISINCGLLALGNVISALGDKSKRATHVPYRDSKLTRLLQDSLGGNSQTIMIACVSPSDRDFMETLNTLKYANRARNIKNKVMVNQDRASQQINALRSEITRLQMELMEYKTGKRIIDEEGVESINDMFHENAMLQTENNNLRVRIKAMQETVDALRARITQLVSEQANQVLARAGEGNEEISNMIHSYIKEIEDLRAKLLESEAVNENLRKNLTRATARSPYFSASSAFSPTILSSDKETIEIIDLAKKDLEKLKRKEKKKKKRLQKLEESGREERSVAGKDDNADTDQEKKEEKGVSEKENNELDVEENQEVSDHEDEEEEEEDEEEEDDIEGEESSDESDSESDEKANYQADLANITCEIAIKQKLIDELENSQKRLQTLKKQYEEKLMMLQHKIRDTQLERDQVLQNLGSVESYSEEKAKKVKCEYEKKLHAMNKELQRLQTAQKEHARLLKNQSQYEKQLKKLQQDVMEMKKTKVRLMKQMKEEQEKARLTESRRNREIAQLKKDQRKRDHQLRLLEAQKRNQEVVLRRKTEEVTALRRQVRPMSDKVAGKVTRKLSSSESPAPDTGSSAASGEADTSRPGTQQKMRIPVARVQALPTPTTNGTRKKYQRKGFTGRVFTSKTARMKWQLLERRVTDIIMQKMTISNMEADMNRLLRQREELTKRREKLSKRREKIVKESGEGDKSVANIIEEMESLTANIDYINDSIADCQANIMQMEEAKEEGETLDVTAVINACTLTEARYLLDHFLSMGINKGLQAAQKEAQIKVLEGRLKQTEITSATQNQLLFHMLKEKAELNPELDALLGHALQDLDGAPPENEEDSSEEDGPLHSPGSEGSTLSSDLMKLCGEVKPKNKARRRTTTQMELLYADSSEVASDTSAGDASLSGPLAPVAEGQEIGMNTETSGTSARDKELLAPSGLPSKIGSISRQSSLSEKKVPEPSPVTRRKAYEKADKPKAKEHKHSDSGASETSLSPPSSPPSRPRNELNVFNRLTVPQGTPSVQQDKSDESDSSLSEVHRGIINPFPACKGVRASPLQCVHIAEGHTKAVLCVDSTDDLLFTGSKDRTCKVWNLVTGQEIMSLGVHPNNVVSVKYCNYTSLVFTVSTSYIKVWDIRESAKCIRTLTSSGQVTLGEACSASTSRTVAIPSGESQINQIALNPTGTFLYAASGNAVRMWDLKRFQSTGKLTGHLGPVMCLTVDQISNGQDLIITGSKDHYIKMFDVTEGALGTVSPTHNFEPPHYDGIEALAIQGDNLFSGSRDNGIKKWDLAQKGLLQQVPNAHKDWVCALGLVPGHPVLLSGCRGGILKLWNVDTFVPVGEMRGHDSPINAICVNSTHVFTAADDRTVRIWKAHNLQDGQLSDTGDLGEDIASN
B2: truncated mouse Kif21a-917 fused to GFP (domain or fragment, UniProt Q9QXL2 1-917, looked up)
chain: MLGAADESSVRVAVRIRPQLAKEKIEGCHICTSVTPGEPQVFLGKDKAFTFDYVFDIDSQQEQIYTQCIEKLIEGCFEGYNATVFAYGQTGAGKTYTMGTGFDVNIMEEEQGIISRAVRHLFKSIDEKKTSAIKNGLPPPEFKVNAQFLELYNEEVLDLFDTTRDIDAKNKKSNIRIHEDSTGGIYTVGVTTRTVNTEPEMMQCLKLGALSRTTASTQMNVQSSRSHAIFTIHVCQTRVCPQTDAENATDNKLISESSPMNEFETLTAKFHFVDLAGSERLKRTGATGERAKEGISINCGLLALGNVISALGDKSKRATHVPYRDSKLTRLLQDSLGGNSQTIMIACVSPSDRDFMETLNTLKYANRARNIKNKVMVNQDRASQQINALRSEITRLQMELMEYKTGKRIIDEEGVESINDMFHENAMLQTENNNLRVRIKAMQETVDALRARITQLVSEQANQVLARAGEGNEEISNMIHSYIKEIEDLRAKLLESEAVNENLRKNLTRATARSPYFSASSAFSPTILSSDKETIEIIDLAKKDLEKLKRKEKKKKKRLQKLEESGREERSVAGKDDNADTDQEKKEEKGVSEKENNELDVEENQEVSDHEDEEEEEEDEEEEDDIEGEESSDESDSESDEKANYQADLANITCEIAIKQKLIDELENSQKRLQTLKKQYEEKLMMLQHKIRDTQLERDQVLQNLGSVESYSEEKAKKVKCEYEKKLHAMNKELQRLQTAQKEHARLLKNQSQYEKQLKKLQQDVMEMKKTKVRLMKQMKEEQEKARLTESRRNREIAQLKKDQRKRDHQLRLLEAQKRNQEVVLRRKTEEVTALRRQVRPMSDKVAGKVTRKLSSSESPAPDTGSSAASGEADTSRPGTQQKMRIPVARVQALPTPTTNGTRKKYQRKGFTGRVFT

Assays:
[1] = target: microtubules assembled from purified beta-R380C yeast tubulin (Tub1/Tub2-R380C) (yeast, UniProt P09733 1-447; P02557 1-457, R380C); experiment: single-molecule TIRF microscopy of kinesin-GFP on surface-attached microtubules
[2] = target: microtubules assembled from purified wildtype yeast tubulin (Tub1/Tub2 heterodimer) (yeast, UniProt P09733 1-447; P02557 1-457); experiment: as above

Binder | increase in binding frequency relative to wildtype microtubules [1] | plus-end dwell time relative to wildtype microtubules [1] | fold increase in binding relative to full-length Kif21a [2] | increase in plus-end dwell time relative to wildtype microtubules [1] | plus-end dwell time relative to wildtype microtubules, high salt [1]
B1 | 29% | 2 fold | – | – | –
B2 | 31% | – | ~100 fold | 45% | ~2 fold
